Test results as given in article PMC10704376, “tRNA m^1G9 modification depends on substrate-specific RNA conformational changes induced by the methyltransferase Trm10” (The Journal of Biological Chemistry, 2023).
Structures can show the parent of a compound that is named as a salt.

Legend:
Trm10 = target: T1, Trm10 (Saccharomyces cerevisiae, UniProt Q12400); assay: electrospray mass spectrometry of RNase T1 fragments (+[…] Da adduct); type: biochemical; settings: cosubstrate with tRNA-Gly-GCC; 1 h, 37 °C; covalent to tRNA G9, not to the enzyme
T1 construct: full-length, N-terminal 6xHis tag, plasmid pJEJ12-3, expressed in E. coli BL21(DE3) pLysS; monomer (printed PDB 4JWJ covers the C-terminal domain only)
T1 sequence (Q12400 1-293): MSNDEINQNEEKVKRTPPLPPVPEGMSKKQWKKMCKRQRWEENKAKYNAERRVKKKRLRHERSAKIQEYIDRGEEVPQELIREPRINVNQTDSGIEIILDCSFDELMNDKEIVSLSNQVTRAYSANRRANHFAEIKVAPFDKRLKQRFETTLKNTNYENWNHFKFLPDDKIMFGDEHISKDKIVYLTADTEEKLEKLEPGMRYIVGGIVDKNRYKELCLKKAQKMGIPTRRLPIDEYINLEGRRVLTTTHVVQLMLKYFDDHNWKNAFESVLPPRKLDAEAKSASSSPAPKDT

[1] = test system: Trm10 (wild type) (Saccharomyces cerevisiae); assay: fluorescence anisotropy; settings: unmodified transcript, FA: 15 nM labeled tRNA, 50-300 nM enzyme, 30 min at room temperature, buffer as in ref 17 (not given), EMSA: 4 uM tRNA, 0-10 uM protein, 30 C 30 min
[2] = test system: Trm10-KRR (Saccharomyces cerevisiae); assay: fluorescence anisotropy; settings: unmodified transcript, FA: 15 nM labeled tRNA, 50-300 nM enzyme, 30 min at room temperature, buffer as in ref 17 (not given), EMSA: 4 uM tRNA, 0-10 uM protein, 30 C 30 min

Molecule: Nc1ncnc2c1ncn2[C@@H]1O[C@H](CN(CCI)CC[C@H](N)C(=O)O)[C@@H](O)[C@H]1O [NM6, 5′-(diaminobutyric acid)-N-iodoethyl-5′-deoxyadenosine ammoniumhydrochloride]
- electrospray mass spectrometry of RNase T1 fragments (+393 Da adduct) (Trm10): NM6 was confirmed to be a suitable cosubstrate for tRNA modification by Trm10 using mass spectrometry

Molecule: tRNAGly-GCC, 5'-fluorescein transcript
- Kd ([1]; separate data set, differs from Fig 4C): 100 nM
- Kd [1]: 20 nM
- Kd [2]: 34 nM

Molecule: tRNALeu-CAA, FA transcript
- Kd [1]: 38 nM

Molecule: tRNAVal-UAC, FA transcript
- Kd [1]: 96 nM
